Tests used:
EPHB2 = EPHB2 (UniProt P29323); experiment: phosphorylation enrichment, bacterial display (enrichment ratio); higher = better substrate or ligand; peptides without Tyr show the background
MERTK = MERTK (UniProt Q12866); experiment: as above
Hck = Hck (UniProt P08631); experiment: as above
FGFR1 = FGFR1 (UniProt P11362); experiment: as above
Fyn = Fyn (UniProt P06241); experiment: as above
Jak2 = Jak2 (UniProt O60674); experiment: as above
EPHB1 = EPHB1 (UniProt P54762); experiment: as above
c-Abl (mouse) = experiment: as above
Fer (mouse) = experiment: as above
AncSZ = experiment: as above
c-Src = experiment: as above
Fes = Fes (UniProt P07332); experiment: as above
FGFR3 = FGFR3 (UniProt P22607); experiment: as above
FGFR3, sequence (P22607 whole entry, looked up): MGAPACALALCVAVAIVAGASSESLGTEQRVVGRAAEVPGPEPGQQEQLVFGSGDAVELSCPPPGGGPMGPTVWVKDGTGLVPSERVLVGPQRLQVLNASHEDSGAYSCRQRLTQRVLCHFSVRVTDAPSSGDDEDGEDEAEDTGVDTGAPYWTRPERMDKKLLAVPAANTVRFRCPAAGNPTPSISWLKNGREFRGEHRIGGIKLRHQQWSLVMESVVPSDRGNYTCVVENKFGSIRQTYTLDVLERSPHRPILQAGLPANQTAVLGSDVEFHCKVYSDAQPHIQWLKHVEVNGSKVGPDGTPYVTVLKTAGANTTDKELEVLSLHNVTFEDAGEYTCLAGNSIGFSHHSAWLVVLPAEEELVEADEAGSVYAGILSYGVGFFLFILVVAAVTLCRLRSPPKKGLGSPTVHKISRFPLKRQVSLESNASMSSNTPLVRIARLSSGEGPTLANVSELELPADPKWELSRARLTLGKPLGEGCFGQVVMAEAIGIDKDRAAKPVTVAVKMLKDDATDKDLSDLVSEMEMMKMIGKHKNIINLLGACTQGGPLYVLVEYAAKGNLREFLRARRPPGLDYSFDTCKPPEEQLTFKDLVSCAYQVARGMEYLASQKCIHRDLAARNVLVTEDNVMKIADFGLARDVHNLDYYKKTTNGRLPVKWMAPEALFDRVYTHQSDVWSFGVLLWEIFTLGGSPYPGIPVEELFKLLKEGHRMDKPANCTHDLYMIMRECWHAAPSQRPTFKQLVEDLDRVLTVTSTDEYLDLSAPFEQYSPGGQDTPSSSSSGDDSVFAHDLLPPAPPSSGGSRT

c-Src SH2 = experiment: SH2 binding enrichment of the phosphorylated peptide, bacterial display (enrichment ratio); higher = better substrate or ligand; peptides without Tyr show the background
SHP2-C SH2 = experiment: as above
Grb2 SH2 = Grb2 SH2 (UniProt P62993); experiment: as above
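Throughout, for SH2 binding enrichment of the phosphorylated peptide, bacterial display: peptide library displayed on the E. coli surface as eCPX fusions, selected cells deep-sequenced, score is each peptide's frequency after selection divided by its frequency in the input.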
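Throughout, for phosphorylation enrichment, bacterial display: 11-residue human phosphosite peptides and single-mutation variants displayed on the E. coli surface, counted by deep sequencing, each peptide's frequency after selection divided by its frequency in the unselected input library; frequency after pTyr selection over input frequency; kinase dosed for 20-30% of maximal phosphorylation in three min.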

Jak2, sequence (O60674 whole entry, looked up): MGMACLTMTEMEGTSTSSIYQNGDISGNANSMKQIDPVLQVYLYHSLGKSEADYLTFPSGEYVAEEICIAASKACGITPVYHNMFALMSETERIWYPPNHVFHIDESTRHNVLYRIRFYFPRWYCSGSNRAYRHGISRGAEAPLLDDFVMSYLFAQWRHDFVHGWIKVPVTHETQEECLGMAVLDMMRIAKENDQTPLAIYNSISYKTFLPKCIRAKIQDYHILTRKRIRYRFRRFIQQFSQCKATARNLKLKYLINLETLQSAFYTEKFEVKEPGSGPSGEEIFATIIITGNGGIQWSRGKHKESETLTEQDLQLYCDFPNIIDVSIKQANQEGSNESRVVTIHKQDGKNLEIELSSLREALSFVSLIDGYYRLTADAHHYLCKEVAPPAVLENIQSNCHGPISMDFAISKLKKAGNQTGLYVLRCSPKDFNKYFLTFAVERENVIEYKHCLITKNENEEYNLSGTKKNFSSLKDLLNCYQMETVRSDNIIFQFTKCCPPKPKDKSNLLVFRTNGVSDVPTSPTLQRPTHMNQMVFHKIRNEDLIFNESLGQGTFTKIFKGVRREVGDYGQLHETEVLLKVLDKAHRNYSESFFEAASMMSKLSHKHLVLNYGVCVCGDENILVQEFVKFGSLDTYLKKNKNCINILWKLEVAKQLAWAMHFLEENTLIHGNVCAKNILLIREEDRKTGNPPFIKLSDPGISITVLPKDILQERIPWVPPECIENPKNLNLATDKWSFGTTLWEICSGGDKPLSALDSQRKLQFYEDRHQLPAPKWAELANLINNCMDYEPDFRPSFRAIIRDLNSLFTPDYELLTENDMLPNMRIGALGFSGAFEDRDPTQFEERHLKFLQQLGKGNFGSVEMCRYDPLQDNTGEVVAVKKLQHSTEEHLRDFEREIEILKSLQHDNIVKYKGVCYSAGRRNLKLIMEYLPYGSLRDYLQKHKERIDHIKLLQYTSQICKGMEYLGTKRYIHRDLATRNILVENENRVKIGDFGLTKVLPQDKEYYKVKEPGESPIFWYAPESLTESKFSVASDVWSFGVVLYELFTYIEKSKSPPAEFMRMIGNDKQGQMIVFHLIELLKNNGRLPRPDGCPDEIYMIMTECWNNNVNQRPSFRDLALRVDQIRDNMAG
EPHB2, sequence (P29323 whole entry, looked up): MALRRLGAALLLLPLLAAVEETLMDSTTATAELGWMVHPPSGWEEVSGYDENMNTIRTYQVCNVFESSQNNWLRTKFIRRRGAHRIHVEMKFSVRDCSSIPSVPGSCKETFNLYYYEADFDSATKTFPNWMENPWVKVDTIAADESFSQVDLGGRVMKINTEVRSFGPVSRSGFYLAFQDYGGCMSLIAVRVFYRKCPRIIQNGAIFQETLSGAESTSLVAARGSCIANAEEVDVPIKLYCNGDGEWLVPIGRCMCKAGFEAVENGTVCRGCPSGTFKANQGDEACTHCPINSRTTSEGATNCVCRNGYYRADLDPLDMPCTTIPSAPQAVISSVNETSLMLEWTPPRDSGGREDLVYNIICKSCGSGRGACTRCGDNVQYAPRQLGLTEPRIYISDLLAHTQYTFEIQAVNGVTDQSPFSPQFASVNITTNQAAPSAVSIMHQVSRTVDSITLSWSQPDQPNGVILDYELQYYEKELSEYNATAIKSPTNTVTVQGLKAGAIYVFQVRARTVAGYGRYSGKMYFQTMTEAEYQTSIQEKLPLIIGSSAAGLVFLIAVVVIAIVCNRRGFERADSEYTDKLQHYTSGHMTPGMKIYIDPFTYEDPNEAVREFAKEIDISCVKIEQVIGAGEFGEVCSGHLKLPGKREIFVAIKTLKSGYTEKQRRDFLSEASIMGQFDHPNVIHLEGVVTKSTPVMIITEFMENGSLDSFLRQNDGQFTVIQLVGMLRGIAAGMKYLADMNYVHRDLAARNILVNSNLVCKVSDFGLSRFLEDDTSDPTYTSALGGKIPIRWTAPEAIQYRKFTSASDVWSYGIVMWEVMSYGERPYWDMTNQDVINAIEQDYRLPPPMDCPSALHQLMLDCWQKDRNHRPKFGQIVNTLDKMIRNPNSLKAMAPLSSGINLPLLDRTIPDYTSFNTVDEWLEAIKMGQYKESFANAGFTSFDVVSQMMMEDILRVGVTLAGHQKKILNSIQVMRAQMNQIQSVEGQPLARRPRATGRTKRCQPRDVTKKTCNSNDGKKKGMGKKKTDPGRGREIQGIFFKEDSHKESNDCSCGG
Hck, sequence (P08631 whole entry, looked up): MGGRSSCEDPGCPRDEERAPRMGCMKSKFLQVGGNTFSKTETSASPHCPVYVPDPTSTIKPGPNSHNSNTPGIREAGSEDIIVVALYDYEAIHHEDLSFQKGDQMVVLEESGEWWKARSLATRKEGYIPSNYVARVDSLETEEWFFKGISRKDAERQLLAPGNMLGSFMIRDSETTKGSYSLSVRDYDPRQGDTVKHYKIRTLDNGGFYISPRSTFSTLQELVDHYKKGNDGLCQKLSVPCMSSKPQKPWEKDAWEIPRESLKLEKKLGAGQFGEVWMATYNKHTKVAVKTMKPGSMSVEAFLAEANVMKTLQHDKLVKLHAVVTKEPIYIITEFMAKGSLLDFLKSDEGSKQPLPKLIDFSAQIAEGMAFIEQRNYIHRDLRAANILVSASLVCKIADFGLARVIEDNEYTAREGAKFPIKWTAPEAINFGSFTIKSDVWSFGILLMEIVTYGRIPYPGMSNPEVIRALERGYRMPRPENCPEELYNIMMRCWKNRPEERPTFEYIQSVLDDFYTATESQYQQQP
FGFR1, sequence (P11362 whole entry, looked up): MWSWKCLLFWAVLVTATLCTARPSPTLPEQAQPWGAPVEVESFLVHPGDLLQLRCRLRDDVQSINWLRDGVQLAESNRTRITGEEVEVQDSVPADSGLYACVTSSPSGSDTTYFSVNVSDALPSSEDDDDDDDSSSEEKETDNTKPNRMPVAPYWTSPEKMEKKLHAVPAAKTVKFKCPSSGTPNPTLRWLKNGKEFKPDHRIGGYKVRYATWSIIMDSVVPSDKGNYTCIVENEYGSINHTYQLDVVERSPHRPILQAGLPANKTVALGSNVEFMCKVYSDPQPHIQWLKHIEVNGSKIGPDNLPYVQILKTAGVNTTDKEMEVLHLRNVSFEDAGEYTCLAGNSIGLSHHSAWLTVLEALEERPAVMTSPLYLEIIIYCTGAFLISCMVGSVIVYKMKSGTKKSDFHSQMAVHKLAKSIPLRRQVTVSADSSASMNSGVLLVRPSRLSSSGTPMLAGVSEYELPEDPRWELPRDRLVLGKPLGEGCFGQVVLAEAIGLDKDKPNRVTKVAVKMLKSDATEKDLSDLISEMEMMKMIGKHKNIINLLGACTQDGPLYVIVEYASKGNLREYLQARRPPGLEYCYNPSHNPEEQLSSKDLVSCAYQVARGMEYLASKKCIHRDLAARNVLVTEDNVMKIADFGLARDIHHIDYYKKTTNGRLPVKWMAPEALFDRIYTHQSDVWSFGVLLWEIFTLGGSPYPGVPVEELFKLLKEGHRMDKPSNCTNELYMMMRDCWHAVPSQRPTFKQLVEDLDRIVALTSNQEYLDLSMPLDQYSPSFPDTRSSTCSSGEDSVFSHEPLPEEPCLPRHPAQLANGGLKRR
Fyn, sequence (P06241 whole entry, looked up): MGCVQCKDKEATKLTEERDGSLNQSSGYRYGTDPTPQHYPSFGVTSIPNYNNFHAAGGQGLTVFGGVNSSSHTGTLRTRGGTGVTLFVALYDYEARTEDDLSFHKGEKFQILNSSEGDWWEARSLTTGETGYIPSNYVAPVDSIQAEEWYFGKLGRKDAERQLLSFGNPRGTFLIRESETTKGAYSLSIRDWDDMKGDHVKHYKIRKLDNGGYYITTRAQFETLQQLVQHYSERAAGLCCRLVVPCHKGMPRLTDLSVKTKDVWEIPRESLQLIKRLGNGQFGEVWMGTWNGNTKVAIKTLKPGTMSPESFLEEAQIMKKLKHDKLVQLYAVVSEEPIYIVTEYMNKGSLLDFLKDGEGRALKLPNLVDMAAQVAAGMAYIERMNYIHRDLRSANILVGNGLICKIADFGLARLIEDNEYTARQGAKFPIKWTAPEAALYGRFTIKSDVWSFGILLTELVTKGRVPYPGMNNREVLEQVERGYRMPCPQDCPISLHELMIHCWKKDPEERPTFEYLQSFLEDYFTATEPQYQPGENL

Sequence | phosphorylation enrichment (EPHB2) | phosphorylation enrichment (MERTK) | phosphorylation enrichment (Hck) | phosphorylation enrichment (FGFR1) | phosphorylation enrichment (Fyn) | phosphorylation enrichment (Jak2) | phosphorylation enrichment (EPHB1) | phosphorylation enrichment (c-Abl (mouse)) | phosphorylation enrichment (Fer (mouse)) | phosphorylation enrichment (AncSZ) | phosphorylation enrichment (c-Src) | phosphorylation enrichment (Fes) | phosphorylation enrichment (FGFR3) | SH2 binding enrichment (c-Src SH2) | SH2 binding enrichment (SHP2-C SH2) | SH2 binding enrichment (Grb2 SH2)
KQINDYVEKGT [SERPINA1_Y184] | 0.431 | 0.374 | 0.433 | 0.402 | 0.44 | 0.72 | 0.491 | 0.546 | 0.536 | 0.733 | 0.478 | 0.905 | 0.58 | 0.528 | 0.585 | 0.726
FEAMEYLESKQ [BTK_Y511_C506Y_YF] | 0.682 | 0.474 | 0.567 | 0.527 | 0.499 | 1.17 | 0.534 | 0.966 | 0.543 | 1.24 | 0.427 | 1.36 | 0.993 | 0.484 | 0.635 | 0.641
DALDNYVVRGV [PCCA_Y473_I475V] | 0.536 | 0.37 | 0.394 | 0.458 | 0.507 | 0.793 | 0.499 | 0.674 | 0.387 | 0.751 | 0.436 | 0.823 | 0.466 | 0.617 | 0.725 | 0.732
FAKTQYPDVFA [CRX_Y63_YF] | 0.45 | 0.38 | 0.483 | 0.454 | 0.364 | 0.724 | 0.469 | 0.478 | 0.388 | 0.876 | 0.351 | 0.74 | 0.525 | 0.486 | 0.544 | 0.803
GTVRDYPDFNP [ANXA3_Y15_S19N] | 0.431 | 0.304 | 0.418 | 0.403 | 0.404 | 0.9 | 0.519 | 0.663 | 0.407 | 0.785 | 0.357 | 0.796 | 0.526 | 0.536 | 0.609 | 0.874
RPYVYYYSYLL [PTEN_Y177_R173P] | 1.39 | 5.81 | 2.09 | 7.24 | 1.42 | 2.84 | 2.64 | 1.4 | 0.931 | 1.51 | 2.3 | 1.6 | 4.57 | 0.539 | 1.12 | 0.841
DFFDLYGGEKL [PTPN11_Y66_F71L_YF] | 0.901 | 0.9 | 3.61 | 0.582 | 2.1 | 1.88 | 0.743 | 1.02 | 0.816 | 1.54 | 3.79 | 1.92 | 0.746 | 0.71 | 0.979 | 1.02
TFWKKYCTFWK [CCDC70_Y125_R126C] | 0.425 | 0.402 | 0.38 | 0.438 | 0.381 | 0.844 | 0.381 | 0.752 | 0.364 | 0.966 | 0.395 | 0.794 | 0.619 | 0.517 | 0.594 | 1.1
VRRVGYVSGWG [HP_Y280_G276R] | 0.423 | 0.387 | 0.438 | 0.373 | 0.388 | 0.514 | 0.422 | 0.642 | 0.469 | 0.613 | 0.434 | 0.61 | 0.391 | 0.494 | 0.579 | 0.95
LVPPRYVRSEI [PKP2_Y194_A195V] | 0.645 | 0.588 | 0.321 | 0.469 | 0.431 | 0.685 | 0.538 | 0.58 | 0.522 | 0.612 | 0.555 | 0.94 | 0.605 | 0.506 | 0.632 | 0.788
VFLGAYDRFLP [SLC22A5_Y486_YF] | 1.58 | 5.13 | 4 | 0.704 | 2.96 | 0.976 | 1.01 | 0.782 | 1.18 | 1.19 | 4.15 | 1.02 | 0.656 | 1.06 | 0.852 | 0.908
DGTESYLTVSS [PLK1_Y462] | 0.467 | 0.387 | 0.443 | 0.454 | 0.453 | 0.845 | 0.447 | 0.687 | 0.487 | 0.89 | 0.465 | 0.954 | 0.59 | 0.475 | 0.713 | 0.628
SHMVNYQPFRK [TEX37_Y25_D24N_YF] | 0.371 | 0.358 | 0.405 | 0.347 | 0.37 | 0.573 | 0.376 | 0.504 | 0.355 | 0.528 | 0.492 | 0.534 | 0.364 | 0.613 | 0.732 | 0.766
RPSELYYSKIS [SMG1_Y2253_G2258S] | 1.31 | 14.6 | 11.1 | 5.05 | 1.4 | 1.05 | 2.17 | 0.926 | 2.25 | 1.79 | 2.96 | 1.02 | 3.5 | 5.74 | 2.51 | 1.06
QFQLKYSETPF [SIX6OS1_Y129_YF] | 1.12 | 1.24 | 0.855 | 0.982 | 0.811 | 2.17 | 0.957 | 1.39 | 0.789 | 1.7 | 0.812 | 1.84 | 1.11 | 0.625 | 1.37 | 1.01
PSDSGYSYETI [MAP1B_Y1921] | 0.467 | 0.583 | 0.577 | 0.627 | 0.599 | 0.848 | 0.596 | 0.664 | 0.642 | 1.35 | 0.454 | 1.38 | 0.688 | 7.7 | 0.523 | 1.79
KDIENHIQDGK [RAD50_Y964_Y964H] | 0.542 | 0.413 | 0.463 | 0.41 | 0.488 | 0.621 | 0.378 | 0.392 | 0.414 | 0.69 | 0.446 | 0.684 | 0.445 | 0.41 | 0.471 | 0.682

Sequence | phosphorylation enrichment (EPHB2) | phosphorylation enrichment (MERTK) | phosphorylation enrichment (Hck) | phosphorylation enrichment (FGFR1) | phosphorylation enrichment (Fyn) | phosphorylation enrichment (Jak2) | phosphorylation enrichment (EPHB1) | phosphorylation enrichment (c-Abl (mouse)) | phosphorylation enrichment (Fer (mouse)) | phosphorylation enrichment (AncSZ) | phosphorylation enrichment (c-Src) | phosphorylation enrichment (Fes) | phosphorylation enrichment (FGFR3) | SH2 binding enrichment (c-Src SH2) | SH2 binding enrichment (SHP2-C SH2) | SH2 binding enrichment (Grb2 SH2)
EVDGLYREAPI [MYL12B_Y143_E141G] | 0.527 | 0.443 | 0.536 | 0.629 | 0.488 | 0.83 | 0.503 | 0.662 | 0.504 | 0.879 | 0.482 | 0.976 | 0.718 | 0.528 | 1.07 | 0.753
HHTNEYEFDEL [TGM1_Y134_D132N_YF] | 1.01 | 0.607 | 0.719 | 0.702 | 1.13 | 0.884 | 0.691 | 0.624 | 0.558 | 1.56 | 0.939 | 1.42 | 0.832 | 0.828 | 0.783 | 0.678
RAFSWYQHQRA [NDST1_Y714_YF] | 0.855 | 0.424 | 0.611 | 0.763 | 0.769 | 1.25 | 0.74 | 1.09 | 0.794 | 1.54 | 0.489 | 1.72 | 1 | 0.934 | 1.23 | 1.23
HSFQCYGQNEA [ENTPD3_Y262_R264Q] | 0.452 | 0.422 | 0.701 | 0.604 | 0.535 | 1.21 | 0.551 | 0.793 | 0.382 | 0.996 | 0.441 | 1 | 0.71 | 0.596 | 0.62 | 0.968
YRIGPYQPNVP [MATR3_Y784] | 0.504 | 0.358 | 0.486 | 0.769 | 0.505 | 0.44 | 0.565 | 0.501 | 0.5 | 0.685 | 0.402 | 0.736 | 0.712 | 0.77 | 0.883 | 0.765
PTTKTYFPHFH [HBA1_Y43_D48H] | 0.399 | 0.605 | 0.688 | 0.602 | 0.598 | 0.951 | 0.457 | 0.676 | 0.496 | 0.721 | 0.655 | 1.14 | 0.559 | 0.761 | 0.981 | 0.971
WGLCSYYETSK [MAGED2_Y448_R446C] | 0.73 | 0.56 | 0.58 | 0.76 | 0.488 | 1.35 | 0.865 | 0.818 | 0.572 | 1.38 | 0.712 | 1.31 | 1.02 | 0.586 | 0.526 | 0.765
QSLEPYTKQQL [STAT3_Y640_V637L] | 0.371 | 0.304 | 0.459 | 0.452 | 0.353 | 0.48 | 0.497 | 0.498 | 0.424 | 0.537 | 0.309 | 0.745 | 0.603 | 0.388 | 0.558 | 0.679
MSIWPYLQKID [MFSD8_Y63] | 0.472 | 0.302 | 0.468 | 0.422 | 0.329 | 0.627 | 0.667 | 0.699 | 0.362 | 0.789 | 0.323 | 0.854 | 0.599 | 0.71 | 0.997 | 0.838
DYLEKYYKFGC [NNMT_Y24_S29C] | 0.802 | 0.541 | 0.539 | 0.855 | 0.588 | 1.25 | 0.824 | 1.04 | 0.563 | 1.44 | 0.78 | 1.28 | 1.14 | 0.581 | 0.53 | 0.611
YSNVLYRPRGP [TMIGD2_Y197_A202P] | 0.576 | 0.856 | 0.69 | 0.685 | 0.501 | 0.501 | 0.492 | 0.461 | 1.83 | 0.796 | 0.421 | 0.656 | 0.525 | 0.682 | 4.56 | 0.717
ISHVAYCVLGK [TRRAP_Y892_R893C] | 0.79 | 1.14 | 1.09 | 0.73 | 0.675 | 1.17 | 0.731 | 1.03 | 0.952 | 1.3 | 0.523 | 1.49 | 0.834 | 0.812 | 1.53 | 0.839
TGILLYGLASR [QARS1_Y57] | 1.38 | 1.79 | 1.22 | 0.529 | 0.578 | 0.937 | 0.964 | 0.756 | 1.46 | 0.885 | 0.765 | 1.16 | 0.692 | 0.497 | 0.803 | 0.855
TYEYKYPEGSS [TGM4_Y440] | 0.492 | 0.414 | 0.449 | 0.517 | 0.394 | 1.05 | 0.526 | 0.777 | 0.392 | 1.32 | 0.525 | 1.11 | 0.755 | 0.854 | 0.701 | 0.821
RELGEYGLQAY [ALDH2_Y497] | 0.754 | 0.562 | 0.824 | 0.676 | 0.822 | 1.32 | 0.699 | 0.962 | 0.949 | 1.55 | 0.696 | 1.61 | 0.977 | 0.451 | 0.749 | 0.745
NTCNRYCRDEI [ITGB3_Y660] | 0.427 | 0.535 | 0.407 | 0.492 | 0.485 | 0.714 | 0.567 | 0.596 | 0.43 | 0.794 | 0.5 | 0.777 | 0.486 | 0.808 | 0.658 | 0.938
